Laboratory results reported in patent US20140087995A1 (published 2014).
Numbered stars: 1 amine (or outer) side, 2 acyl side, 3 side chain; on linkers, the order of the positions; unused ones are H or OH. Bridge positions count the residues as written; N and C are the ends. Side chains are listed from the residue outwards. Ends that are not written are not given here. * marks the point of attachment. C20 diacid = O=C(O)CCCCCCCCCCCCCCCCCCC(=O)*; γGlu = O=C(O)[C@H](CCC(=O)[*:2])N[*:1]; AEEA = NCCOCCOCC(=O)O

T1: human calcitonin receptor (human, UniProt P30988 25-474)
T1 sequence (looked up): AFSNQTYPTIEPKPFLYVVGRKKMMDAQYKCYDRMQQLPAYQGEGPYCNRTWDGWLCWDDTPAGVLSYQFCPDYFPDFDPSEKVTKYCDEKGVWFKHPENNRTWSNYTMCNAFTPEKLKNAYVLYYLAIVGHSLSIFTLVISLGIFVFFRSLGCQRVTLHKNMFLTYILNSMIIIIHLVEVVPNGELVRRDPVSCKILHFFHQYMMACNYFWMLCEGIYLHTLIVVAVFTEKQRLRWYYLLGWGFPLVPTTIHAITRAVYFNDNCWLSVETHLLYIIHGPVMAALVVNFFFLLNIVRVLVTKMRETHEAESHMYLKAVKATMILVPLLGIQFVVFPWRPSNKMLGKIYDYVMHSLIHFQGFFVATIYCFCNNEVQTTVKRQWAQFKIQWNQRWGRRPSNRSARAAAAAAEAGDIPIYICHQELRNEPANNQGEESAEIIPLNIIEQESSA

T2: human calcitonin receptor (human, UniProt P30988 25-474)
T2 construct: whole, on cells; Used as membranes prepared from the transfected cells (Assay VII); also called hCTR; hCT
T2 sequence (looked up): T1 sequence (looked up)

B1: N^-1-[(4S)-4-carboxy-4-(19-carboxynonadecanoylamino)butanoyl]-Gly[Arg1,Arg17,Pro21,Pro27]-h-amylin (peptide)
peptide: {C20 diacid-γGlu}-GRCNTATCATQRLANFLRHSSPNFGAIPSSTNVGSNTY-NH2
modifications: disulfide 3-8
SMILES: CC[C@H](C)[C@H](NC(=O)[C@H](C)NC(=O)CNC(=O)[C@H](Cc1ccccc1)NC(=O)[C@H](CC(N)=O)NC(=O)[C@@H]1CCCN1C(=O)[C@H](CO)NC(=O)[C@H](CO)NC(=O)[C@H](Cc1c[nH]cn1)NC(=O)[C@H](CCCNC(=N)N)NC(=O)[C@H](CC(C)C)NC(=O)[C@H](Cc1ccccc1)NC(=O)[C@H](CC(N)=O)NC(=O)[C@H](C)NC(=O)[C@H](CC(C)C)NC(=O)[C@H](CCCNC(=N)N)NC(=O)[C@H](CCC(N)=O)NC(=O)[C@@H](NC(=O)[C@H](C)NC(=O)[C@@H]1CSSC[C@H](NC(=O)[C@H](CCCNC(=N)N)NC(=O)CNC(=O)CC[C@H](NC(=O)CCCCCCCCCCCCCCCCCCC(=O)O)C(=O)O)C(=O)N[C@@H](CC(N)=O)C(=O)N[C@@H]([C@@H](C)O)C(=O)N[C@@H](C)C(=O)N[C@@H]([C@@H](C)O)C(=O)N1)[C@@H](C)O)C(=O)N1CCC[C@H]1C(=O)N[C@@H](CO)C(=O)N[C@@H](CO)C(=O)N[C@H](C(=O)N[C@@H](CC(N)=O)C(=O)N[C@H](C(=O)NCC(=O)N[C@@H](CO)C(=O)N[C@@H](CC(N)=O)C(=O)N[C@H](C(=O)N[C@@H](Cc1ccc(O)cc1)C(N)=O)[C@@H](C)O)C(C)C)[C@@H](C)O
notes: analogue of human amylin, extended by Gly at the N-terminus; also called compound 46
B2: N^ε-[2-[2-[2-[[(4S)-4-carboxy-4-(19-carboxynonadecanoylamino)butanoyl]amino]ethoxy]ethoxy]acetyl]Lys[Arg1,Arg17,Pro21,Pro27,His35]-h-amylin (peptide)
peptide: K([AEEA-γGlu-C20 diacid])RCNTATCATQRLANFLRHSSPNFGAIPSSTNVGSHTY-NH2
modifications: disulfide 3-8; N-terminus assumed
SMILES: CC[C@H](C)[C@H](NC(=O)[C@H](C)NC(=O)CNC(=O)[C@H](Cc1ccccc1)NC(=O)[C@H](CC(N)=O)NC(=O)[C@@H]1CCCN1C(=O)[C@H](CO)NC(=O)[C@H](CO)NC(=O)[C@H](Cc1c[nH]cn1)NC(=O)[C@H](CCCNC(=N)N)NC(=O)[C@H](CC(C)C)NC(=O)[C@H](Cc1ccccc1)NC(=O)[C@H](CC(N)=O)NC(=O)[C@H](C)NC(=O)[C@H](CC(C)C)NC(=O)[C@H](CCCNC(=N)N)NC(=O)[C@H](CCC(N)=O)NC(=O)[C@@H](NC(=O)[C@H](C)NC(=O)[C@@H]1CSSC[C@H](NC(=O)[C@H](CCCNC(=N)N)NC(=O)[C@@H](N)CCCCNC(=O)COCCOCCNC(=O)CC[C@H](NC(=O)CCCCCCCCCCCCCCCCCCC(=O)O)C(=O)O)C(=O)N[C@@H](CC(N)=O)C(=O)N[C@@H]([C@@H](C)O)C(=O)N[C@@H](C)C(=O)N[C@@H]([C@@H](C)O)C(=O)N1)[C@@H](C)O)C(=O)N1CCC[C@H]1C(=O)N[C@@H](CO)C(=O)N[C@@H](CO)C(=O)N[C@H](C(=O)N[C@@H](CC(N)=O)C(=O)N[C@H](C(=O)NCC(=O)N[C@@H](CO)C(=O)N[C@@H](Cc1c[nH]cn1)C(=O)N[C@H](C(=O)N[C@@H](Cc1ccc(O)cc1)C(N)=O)[C@@H](C)O)C(C)C)[C@@H](C)O
notes: analogue of human amylin, extended by Lys at the N-terminus; also called compound 45
B3: N^ε1-[(4S)-4-carboxy-4-(19-carboxynonadecanoylamino)butanoyl]-[Arg17,Pro21,Pro27]-h-amylin (peptide)
peptide: K([γGlu-C20 diacid])CNTATCATQRLANFLRHSSPNFGAIPSSTNVGSNTY-NH2
modifications: disulfide 2-7; N-terminus assumed
SMILES: CC[C@H](C)[C@H](NC(=O)[C@H](C)NC(=O)CNC(=O)[C@H](Cc1ccccc1)NC(=O)[C@H](CC(N)=O)NC(=O)[C@@H]1CCCN1C(=O)[C@H](CO)NC(=O)[C@H](CO)NC(=O)[C@H](Cc1c[nH]cn1)NC(=O)[C@H](CCCNC(=N)N)NC(=O)[C@H](CC(C)C)NC(=O)[C@H](Cc1ccccc1)NC(=O)[C@H](CC(N)=O)NC(=O)[C@H](C)NC(=O)[C@H](CC(C)C)NC(=O)[C@H](CCCNC(=N)N)NC(=O)[C@H](CCC(N)=O)NC(=O)[C@@H](NC(=O)[C@H](C)NC(=O)[C@@H]1CSSC[C@H](NC(=O)[C@@H](N)CCCCNC(=O)CC[C@H](NC(=O)CCCCCCCCCCCCCCCCCCC(=O)O)C(=O)O)C(=O)N[C@@H](CC(N)=O)C(=O)N[C@@H]([C@@H](C)O)C(=O)N[C@@H](C)C(=O)N[C@@H]([C@@H](C)O)C(=O)N1)[C@@H](C)O)C(=O)N1CCC[C@H]1C(=O)N[C@@H](CO)C(=O)N[C@@H](CO)C(=O)N[C@H](C(=O)N[C@@H](CC(N)=O)C(=O)N[C@H](C(=O)NCC(=O)N[C@@H](CO)C(=O)N[C@@H](CC(N)=O)C(=O)N[C@H](C(=O)N[C@@H](Cc1ccc(O)cc1)C(N)=O)[C@@H](C)O)C(C)C)[C@@H](C)O
notes: analogue of human amylin; also called compound 48
B4: N^α1-[(4S)-4-carboxy-4-(19-carboxynonadecanoylamino)butanoyl]-[Glu14,Arg17,Pro21,Pro27]-h-amylin (peptide)
peptide: KCNTATCATQRLAEFLRHSSPNFGAIPSSTNVGSNTY
modifications: C20 diacid-gGlu acylated on the alpha amino group of the N-terminal residue (Lys 1); disulfide Cys2-Cys7; C-terminal amide
notes: Derivative of human amylin; also called compound 9
B5: N^α1-[(4S)-4-carboxy-4-(19-carboxynonadecanoylamino)butanoyl]-[Asp14,Arg17,Pro21,Pro27,Pro37]-h-amylin (peptide)
peptide: {C20 diacid-γGlu}-KCNTATCATQRLADFLRHSSPNFGAIPSSTNVGSNTP-NH2
modifications: disulfide 2-7
SMILES: CC[C@H](C)[C@H](NC(=O)[C@H](C)NC(=O)CNC(=O)[C@H](Cc1ccccc1)NC(=O)[C@H](CC(N)=O)NC(=O)[C@@H]1CCCN1C(=O)[C@H](CO)NC(=O)[C@H](CO)NC(=O)[C@H](Cc1c[nH]cn1)NC(=O)[C@H](CCCNC(=N)N)NC(=O)[C@H](CC(C)C)NC(=O)[C@H](Cc1ccccc1)NC(=O)[C@H](CC(=O)O)NC(=O)[C@H](C)NC(=O)[C@H](CC(C)C)NC(=O)[C@H](CCCNC(=N)N)NC(=O)[C@H](CCC(N)=O)NC(=O)[C@@H](NC(=O)[C@H](C)NC(=O)[C@@H]1CSSC[C@H](NC(=O)[C@H](CCCCN)NC(=O)CC[C@H](NC(=O)CCCCCCCCCCCCCCCCCCC(=O)O)C(=O)O)C(=O)N[C@@H](CC(N)=O)C(=O)N[C@@H]([C@@H](C)O)C(=O)N[C@@H](C)C(=O)N[C@@H]([C@@H](C)O)C(=O)N1)[C@@H](C)O)C(=O)N1CCC[C@H]1C(=O)N[C@@H](CO)C(=O)N[C@@H](CO)C(=O)N[C@H](C(=O)N[C@@H](CC(N)=O)C(=O)N[C@H](C(=O)NCC(=O)N[C@@H](CO)C(=O)N[C@@H](CC(N)=O)C(=O)N[C@H](C(=O)N1CCC[C@H]1C(N)=O)[C@@H](C)O)C(C)C)[C@@H](C)O
notes: Derivative of human amylin; also called compound 10
B6: N^α1-[(4S)-4-carboxy-4-(19-carboxynonadecanoylamino)butanoyl]-[Glu14,Arg17,Pro21,Pro27,Pro37]-h-amylin (peptide)
peptide: {C20 diacid-γGlu}-KCNTATCATQRLAEFLRHSSPNFGAIPSSTNVGSNTP-NH2
modifications: disulfide 2-7
notes: Derivative of human amylin; also called compound 8
B7: N^α1-[(4S)-4-carboxy-4-(19-carboxynonadecanoylamino)butanoyl]-[Glu14,Arg17,Pro21,Pro27,Asp35,Pro37]-h-amylin (peptide)
peptide: {C20 diacid-γGlu}-KCNTATCATQRLAEFLRHSSPNFGAIPSSTNVGSDTP-NH2
modifications: disulfide 2-7
SMILES: CC[C@H](C)[C@H](NC(=O)[C@H](C)NC(=O)CNC(=O)[C@H](Cc1ccccc1)NC(=O)[C@H](CC(N)=O)NC(=O)[C@@H]1CCCN1C(=O)[C@H](CO)NC(=O)[C@H](CO)NC(=O)[C@H](Cc1c[nH]cn1)NC(=O)[C@H](CCCNC(=N)N)NC(=O)[C@H](CC(C)C)NC(=O)[C@H](Cc1ccccc1)NC(=O)[C@H](CCC(=O)O)NC(=O)[C@H](C)NC(=O)[C@H](CC(C)C)NC(=O)[C@H](CCCNC(=N)N)NC(=O)[C@H](CCC(N)=O)NC(=O)[C@@H](NC(=O)[C@H](C)NC(=O)[C@@H]1CSSC[C@H](NC(=O)[C@H](CCCCN)NC(=O)CC[C@H](NC(=O)CCCCCCCCCCCCCCCCCCC(=O)O)C(=O)O)C(=O)N[C@@H](CC(N)=O)C(=O)N[C@@H]([C@@H](C)O)C(=O)N[C@@H](C)C(=O)N[C@@H]([C@@H](C)O)C(=O)N1)[C@@H](C)O)C(=O)N1CCC[C@H]1C(=O)N[C@@H](CO)C(=O)N[C@@H](CO)C(=O)N[C@H](C(=O)N[C@@H](CC(N)=O)C(=O)N[C@H](C(=O)NCC(=O)N[C@@H](CO)C(=O)N[C@@H](CC(=O)O)C(=O)N[C@H](C(=O)N1CCC[C@H]1C(N)=O)[C@@H](C)O)C(C)C)[C@@H](C)O
notes: Derivative of human amylin; also called compound 11

Molecular target: T1, human calcitonin receptor
Test: cell-based or functional assay

| hCTR funct. EC50 [nM] | Binder |
| --- | --- |
| 0.899 | B1 |
| 10.1 | B2 |
| 1.97 | B3 |

Molecular target: T2, human calcitonin receptor
Test: ratio IC50 human calcitonin receptor / IC50 human amylin receptor (Assays VII and V)
Description: The resulting pellet was resuspended, homogenized and centrifuged (20.000 rpm, 15 min) in a buffer containing 20 mM Na-HEPES and 0.1 mM EDTA (pH 7.4, buffer 2). The resulting pellet was resuspended in buffer 2 and protein concentration was measured (BCA protein Assay, Pierce). The homogenate was kept cold during the whole procedure. The membranes were kept at −80° C. until use. The assay was performed in a 384 well Optiplate (PerkinElmer) in a total volume of 40 ul. Membranes were mixed with SPA beads. Final concentration of membranes 35 ng/μL final and SPA beads was 0.05 mg/well. Test-compounds were dissolved in DMSO and further diluted in assay buffer (50 mM Hepes, pH 7.4, 1 mM CaCl2, 5 mM MgCl₂, 0.1% OA and 0.02% Tween20). […] The final mixture was incubated with shaking at 400 rpm for 120 min at 25° C. prior to centrifugation (1500 rpm, 10 min). Samples were analyzed on TopCounter™ (Packard). The IC₅₀ was calculated using (one site binding competition analysis) GraphPad Prism5 as a measure of receptor affinity.
Membranes were prepared in the following way; the cells were rinsed with PBS and incubated with Versene for approximately 5 min before harvesting. The cells were flushed with PBS and the cell-suspension was centrifuged for 5 min at 1000 rpm. Cells were homogenized (Ultrathurrax) in a buffer containing 20 mM Na-HEPES and 10 mM EDTA (pH 7.4) and centrifuged at 20.000 rpm for 15 min. The resulting pellet was resuspended, homogenized and centrifuged (20.000 rpm, 15 min) in a buffer containing 20 mM Na-HEPES and 0.1 mM EDTA (pH 7.4, buffer 2). The resulting pellet was resuspended in buffer 2 and protein concentration was measured (BCA protein Assay, Pierce). The homogenate was kept cold during the whole procedure. The membranes were kept at −80° C. until use. Assay was performed in a 384 well Optiplate (PerkinElmer) in a total volume of 40 ul. Membranes were mixed with SPA beads.

| Ratio hCT/hAmylin binding | Binder |
| --- | --- |
| 8 | B4 |
| 1.2 | B5 |
| 0.5 | B6 |
| 1 | B7 |
